# Assay results reported in PMC11093223 (2024).
# B1: syntaxin-16 (209–221) peptide [human] / TBC1D23 C-terminal domain [mouse] (parent complex)
# chain 1: DDNTLYHRGFTED
# chain 2: DRKEVVNIQTWINKPDIKHHFPCKEVKESGHMFPSHLLVTATHMYCLREILSRKGLAYIQSRQALNSVVKITSKKKHPELITFKYGNSSASGIEILAIERYLIPNAGDATRAIKQQIMKVLDALES
# Variants of: B1
# Assay: ITC
row,Variant,Kd [µM]
1,chain 1 R8A,10.3
